Measurements reported in patent publication US20260193293A1, “PEPTIDES CAPABLE OF INHIBITING PROTEIN-PROTEIN INTERACTIONS AT GABAB1A SUBUNIT AND USES THEREOF” (UNIVERSITY OF COPENHAGEN, priority 2022, published 2026).
Non-standard residues stand in square brackets, D forms with d. NMeW = CN[C@@H](Cc1c[nH]c2ccccc12)C(=O)O; NMeR = CN[C@@H](CCCNC(=N)N)C(=O)O; NMeI = CC[C@H](C)[C@H](NC)C(=O)O; NMeT = CN[C@H](C(=O)O)[C@@H](C)O; NMeD = CN[C@@H](CC(=O)O)C(=O)O; NMeV = CN[C@H](C(=O)O)C(C)C; NMeS = CN[C@@H](CO)C(=O)O; NMeA = CN[C@@H](C)C(=O)O; Sar = CNCC(=O)O

B1: …(N-Me-D) (peptide)
peptide: Ac-ETEFIAWGPTGDE[NMeD]-NH2
SMILES: CC[C@H](C)[C@H](NC(=O)[C@H](Cc1ccccc1)NC(=O)[C@H](CCC(=O)O)NC(=O)[C@@H](NC(=O)[C@H](CCC(=O)O)NC(C)=O)[C@@H](C)O)C(=O)N[C@@H](C)C(=O)N[C@@H](Cc1c[nH]c2ccccc12)C(=O)NCC(=O)N1CCC[C@H]1C(=O)N[C@H](C(=O)NCC(=O)N[C@@H](CC(=O)O)C(=O)N[C@@H](CCC(=O)O)C(=O)N(C)[C@@H](CC(=O)O)C(N)=O)[C@@H](C)O
B2: p… (peptide)
peptide: Ac-[dP]WAIVWGPTVSRED-NH2
SMILES: CC[C@H](C)[C@H](NC(=O)[C@H](C)NC(=O)[C@H](Cc1c[nH]c2ccccc12)NC(=O)[C@H]1CCCN1C(C)=O)C(=O)N[C@H](C(=O)N[C@@H](Cc1c[nH]c2ccccc12)C(=O)NCC(=O)N1CCC[C@H]1C(=O)N[C@H](C(=O)N[C@H](C(=O)N[C@@H](CO)C(=O)N[C@@H](CCCNC(=N)N)C(=O)N[C@@H](CCC(=O)O)C(=O)N[C@@H](CC(=O)O)C(N)=O)C(C)C)[C@@H](C)O)C(C)C
B3: P(N-Me-W)… (peptide)
peptide: Ac-P[NMeW]AIVWGPTVSRED-NH2
SMILES: CC[C@H](C)[C@H](NC(=O)[C@H](C)NC(=O)[C@H](Cc1c[nH]c2ccccc12)N(C)C(=O)[C@@H]1CCCN1C(C)=O)C(=O)N[C@H](C(=O)N[C@@H](Cc1c[nH]c2ccccc12)C(=O)NCC(=O)N1CCC[C@H]1C(=O)N[C@H](C(=O)N[C@H](C(=O)N[C@@H](CO)C(=O)N[C@@H](CCCNC(=N)N)C(=O)N[C@@H](CCC(=O)O)C(=O)N[C@@H](CC(=O)O)C(N)=O)C(C)C)[C@@H](C)O)C(C)C
B4: PW(N-Me-A)… (peptide)
peptide: Ac-PW[NMeA]IVWGPTVSRED-NH2
SMILES: CC[C@H](C)[C@H](NC(=O)[C@H](C)N(C)C(=O)[C@H](Cc1c[nH]c2ccccc12)NC(=O)[C@@H]1CCCN1C(C)=O)C(=O)N[C@H](C(=O)N[C@@H](Cc1c[nH]c2ccccc12)C(=O)NCC(=O)N1CCC[C@H]1C(=O)N[C@H](C(=O)N[C@H](C(=O)N[C@@H](CO)C(=O)N[C@@H](CCCNC(=N)N)C(=O)N[C@@H](CCC(=O)O)C(=O)N[C@@H](CC(=O)O)C(N)=O)C(C)C)[C@@H](C)O)C(C)C
B5: PWA(N-Me-I)… (peptide)
peptide: Ac-PWA[NMeI]VWGPTVSRED-NH2
SMILES: CC[C@H](C)[C@@H](C(=O)N[C@H](C(=O)N[C@@H](Cc1c[nH]c2ccccc12)C(=O)NCC(=O)N1CCC[C@H]1C(=O)N[C@H](C(=O)N[C@H](C(=O)N[C@@H](CO)C(=O)N[C@@H](CCCNC(=N)N)C(=O)N[C@@H](CCC(=O)O)C(=O)N[C@@H](CC(=O)O)C(N)=O)C(C)C)[C@@H](C)O)C(C)C)N(C)C(=O)[C@H](C)NC(=O)[C@H](Cc1c[nH]c2ccccc12)NC(=O)[C@@H]1CCCN1C(C)=O
B6: PWAI(N-Me-V)… (peptide)
peptide: Ac-PWAI[NMeV]WGPTVSRED-NH2
SMILES: CC[C@H](C)[C@H](NC(=O)[C@H](C)NC(=O)[C@H](Cc1c[nH]c2ccccc12)NC(=O)[C@@H]1CCCN1C(C)=O)C(=O)N(C)[C@H](C(=O)N[C@@H](Cc1c[nH]c2ccccc12)C(=O)NCC(=O)N1CCC[C@H]1C(=O)N[C@H](C(=O)N[C@H](C(=O)N[C@@H](CO)C(=O)N[C@@H](CCCNC(=N)N)C(=O)N[C@@H](CCC(=O)O)C(=O)N[C@@H](CC(=O)O)C(N)=O)C(C)C)[C@@H](C)O)C(C)C
B7: PWAIV(N-Me-W)GPTVSRED (peptide)
peptide: Ac-PWAIV[NMeW]GPTVSRED-NH2
SMILES: CC[C@H](C)[C@H](NC(=O)[C@H](C)NC(=O)[C@H](Cc1c[nH]c2ccccc12)NC(=O)[C@@H]1CCCN1C(C)=O)C(=O)N[C@H](C(=O)N(C)[C@@H](Cc1c[nH]c2ccccc12)C(=O)NCC(=O)N1CCC[C@H]1C(=O)N[C@H](C(=O)N[C@H](C(=O)N[C@@H](CO)C(=O)N[C@@H](CCCNC(=N)N)C(=O)N[C@@H](CCC(=O)O)C(=O)N[C@@H](CC(=O)O)C(N)=O)C(C)C)[C@@H](C)O)C(C)C
B8: PWAIVW(N-Me-G)PTVSRED (peptide)
peptide: Ac-PWAIVW[Sar]PTVSRED-NH2
SMILES: CC[C@H](C)[C@H](NC(=O)[C@H](C)NC(=O)[C@H](Cc1c[nH]c2ccccc12)NC(=O)[C@@H]1CCCN1C(C)=O)C(=O)N[C@H](C(=O)N[C@@H](Cc1c[nH]c2ccccc12)C(=O)N(C)CC(=O)N1CCC[C@H]1C(=O)N[C@H](C(=O)N[C@H](C(=O)N[C@@H](CO)C(=O)N[C@@H](CCCNC(=N)N)C(=O)N[C@@H](CCC(=O)O)C(=O)N[C@@H](CC(=O)O)C(N)=O)C(C)C)[C@@H](C)O)C(C)C
B9: PWAIVWGP(N-Me-T)VSRED (peptide)
peptide: Ac-PWAIVWGP[NMeT]VSRED-NH2
SMILES: CC[C@H](C)[C@H](NC(=O)[C@H](C)NC(=O)[C@H](Cc1c[nH]c2ccccc12)NC(=O)[C@@H]1CCCN1C(C)=O)C(=O)N[C@H](C(=O)N[C@@H](Cc1c[nH]c2ccccc12)C(=O)NCC(=O)N1CCC[C@H]1C(=O)N(C)[C@H](C(=O)N[C@H](C(=O)N[C@@H](CO)C(=O)N[C@@H](CCCNC(=N)N)C(=O)N[C@@H](CCC(=O)O)C(=O)N[C@@H](CC(=O)O)C(N)=O)C(C)C)[C@@H](C)O)C(C)C
B10: …(N-Me-V)SRED (peptide)
peptide: Ac-PWAIVWGPT[NMeV]SRED-NH2
SMILES: CC[C@H](C)[C@H](NC(=O)[C@H](C)NC(=O)[C@H](Cc1c[nH]c2ccccc12)NC(=O)[C@@H]1CCCN1C(C)=O)C(=O)N[C@H](C(=O)N[C@@H](Cc1c[nH]c2ccccc12)C(=O)NCC(=O)N1CCC[C@H]1C(=O)N[C@H](C(=O)N(C)[C@H](C(=O)N[C@@H](CO)C(=O)N[C@@H](CCCNC(=N)N)C(=O)N[C@@H](CCC(=O)O)C(=O)N[C@@H](CC(=O)O)C(N)=O)C(C)C)[C@@H](C)O)C(C)C
B11: …(N-Me-S)RED (peptide)
peptide: Ac-PWAIVWGPTV[NMeS]RED-NH2
SMILES: CC[C@H](C)[C@H](NC(=O)[C@H](C)NC(=O)[C@H](Cc1c[nH]c2ccccc12)NC(=O)[C@@H]1CCCN1C(C)=O)C(=O)N[C@H](C(=O)N[C@@H](Cc1c[nH]c2ccccc12)C(=O)NCC(=O)N1CCC[C@H]1C(=O)N[C@H](C(=O)N[C@H](C(=O)N(C)[C@@H](CO)C(=O)N[C@@H](CCCNC(=N)N)C(=O)N[C@@H](CCC(=O)O)C(=O)N[C@@H](CC(=O)O)C(N)=O)C(C)C)[C@@H](C)O)C(C)C
B12: …(N-Me-R)ED (peptide)
peptide: Ac-PWAIVWGPTVS[NMeR]ED-NH2
SMILES: CC[C@H](C)[C@H](NC(=O)[C@H](C)NC(=O)[C@H](Cc1c[nH]c2ccccc12)NC(=O)[C@@H]1CCCN1C(C)=O)C(=O)N[C@H](C(=O)N[C@@H](Cc1c[nH]c2ccccc12)C(=O)NCC(=O)N1CCC[C@H]1C(=O)N[C@H](C(=O)N[C@H](C(=O)N[C@@H](CO)C(=O)N(C)[C@@H](CCCNC(=N)N)C(=O)N[C@@H](CCC(=O)O)C(=O)N[C@@H](CC(=O)O)C(N)=O)C(C)C)[C@@H](C)O)C(C)C

Target: Sushi domains (SD1/2) protein of the GABAB1a (GB1a) subunit, recombinant
Assay: FP competition

Sequence of Sushi domains (SD1/2) protein of the GABAB1a (GB1a) subunit, recombinant (Q9Z0U4 29-158): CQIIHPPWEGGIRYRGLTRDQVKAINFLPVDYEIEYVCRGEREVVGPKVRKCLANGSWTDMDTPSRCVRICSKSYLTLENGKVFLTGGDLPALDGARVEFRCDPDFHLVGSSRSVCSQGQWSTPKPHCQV

Row | Binder | Ki [nM]
1 | B1 | 29
2 | Ac-AWAIVWGPTVSRED-NH2 | 552
3 | Ac-PAAIVWGPTVSRED-NH2 | 911
4 | Ac-PWAAVWGPTVSRED-NH2 | 46600
5 | Ac-PWAIVWAPTVSRED-NH2 | 877
6 | Ac-PWAIVWGATVSRED-NH2 | 1500
7 | Ac-PWAIVWGPAVSRED-NH2 | 1030
8 | Ac-PWAIVWGPTASRED-NH2 | 318
9 | Ac-PWAIVWGPTVARED-NH2 | 480
10 | Ac-PWAIVWGPTVSAED-NH2 | 341
11 | Ac-PWAIVWGPTVSRAD-NH2 | 600
12 | Ac-PWAIVWGPTVSREA-NH2 | 572
13 | B2 | 555
14 | Ac-P[dW]AIVWGPTVSRED-NH2 [Pw…] | 1230
15 | Ac-PW[dA]IVWGPTVSRED-NH2 [PWa…] | 14100
16 | Ac-PWAIVW[dA]PTVSRED-NH2 [PWAIVWaPTVSRED] | 18100

Row | Binder | Ki [nM]
17 | Ac-PWAIVWG[dP]TVSRED-NH2 [PWAIVWGpTVSRED] | 6860
18 | Ac-PWAIVWGP[dT]VSRED-NH2 [PWAIVWGPtVSRED] | 1300
19 | Ac-PWAIVWGPT[dV]SRED-NH2 […vSRED] | 686
20 | Ac-PWAIVWGPTV[dS]RED-NH2 […sRED] | 552
21 | Ac-PWAIVWGPTVS[dR]ED-NH2 […rED] | 605
22 | B3 | 833
23 | B4 | 7230
24 | B5 | 370
25 | B6 | 7000
26 | B7 | 636
27 | B8 | 58300
28 | B9 | 1260
29 | B10 | 1780
30 | B11 | 1040
31 | B12 | 502
